For data set [1], the system named is MS2 coat protein. Description: apparent KD of MS2 coat protein, switch ON state; designed switch direction (-1 OFF switch, 1 ON switch): 1; higher = weaker reporter binding. Particulars: FMN input: 0 or 200 uM; Eterna round: R93 (includes R88 designs). In a few lines: (§1)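 Illumina sequencing clusters were used for on-chip transcription of designed RNA switches. Titration with SNAP-549-labelled MS2 coat protein followed, in twofold steps from 0.7 or 1.5 nM to 3 µM in 100 mM Tris-HCl pH 7.5, 80 mM KCl, 4 mM MgCl2, without or with constant ligand. Apparent KD is each design's median of fits to normalised cluster binding curves.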

Data set [2] relates to MS2 coat protein. The data set is described as follows: apparent KD of MS2 coat protein, switch OFF state (with FMN for OFF switches, without FMN for ON switches); designed switch direction (-1 OFF switch, 1 ON switch): 1; higher = weaker reporter binding. Particulars: FMN input: 0 or 200 uM; Eterna round: R93 (includes R88 designs). A digest of the protocol: as §1

On to “AAGAAACAUGAGGAUCACCCAUGUGAGAAAAACACAGGAUAUGCAAAAGAAAGAAAGAAAGCAGAAGGGUGAAGAA [Mat - Same State 1 - Tesla mod - 52]”, for which the “apparent KD of MS2 coat protein” value in the data set with MS2 coat protein [1] turned out to be 0.0225 µM; in the data set on MS2 coat protein [2], 0.074 µM.
For “CAUAGACAUGAGGAUCACCCAUGUAGAAUUAUGGGAGGAUAUACAAAGACGAGAGUCAGAGUAGAAGGCCUAGGAA [salish99-ss1-160]”, in that order: 0.0202 µM and 0.0386 µM.
For “AAAAAAAAAGUCGAGGAUAUCCACAUGGUGACAUGAGGAUCACCCAUGUGAAGAAAAGCACAUGAGGAGAAGGCGACAAAAAAAA [Same State 2.7b (Tightrope mod)]”, the results for the “apparent KD of MS2 coat protein” value in the data set on MS2 coat protein [1] and in the data set on MS2 coat protein [2] were 0.135 µM and 1.11 µM, respectively.
For “GUGGCGCAGGUACAGGAUAUGUUUCUCGUAACAUGAGGAUCACCCAUGUACCUAUGAGAUUAAAUGCAGAAGGGUGCACGCCACG [Inedor]”, in that order: 0.0411 µM and 0.154 µM.
Take “UGUUCGAGUAGUGAGGAUAUUCAUGGGCCCACAUGAGGAUCACCCAUGUAAUGGACCGGGCCGAAGGAGAAGGCGCGUAAAAUUA [Atceve]”: the “apparent KD of MS2 coat protein” value is 0.0382 µM in the data set with MS2 coat protein [1] and 0.14 µM in the data set on MS2 coat protein [2].
Take “AAAGACAUGGUGUAGGAUAUAUUAAUAGUCACAUGAGGAUCACCCAUGUUCAGAUAUCUGAACGAGUAGAAGGACGAUGAAAAAA [SameState2 Malc#4]”: the figures for the “apparent KD of MS2 coat protein” value in the data set on MS2 coat protein [1] and with MS2 coat protein [2] were 0.251 µM and 0.13 µM, respectively.
For “CAGGACGUAGGAUAGGAUAUAUGAAUAAUUACAUGAGGAUCACCCAUGUCCAUUUAUAUGGGAACAUAGAAGGGUUGUGGUUAUG [Mat - Same state - Malcolm Mod - D144]”, in that order: 0.68 µM and 0.315 µM.
For “GGGAGACAUGAGGAUCACCCAUGUGAGAAGAGGCGAGGAUAUCGAAAGAAAGAAGAGAAACGAGAAGGCGCGAGAA [salish99-SS1-049]”, the “apparent KD of MS2 coat protein” value amounted to 0.037 µM with MS2 coat protein [1] and 0.0644 µM with MS2 coat protein [2].
For “AAUAUAUUAAGUGAGGAUAUCAAGAAAAAAACAUGAGGAUCACCCAUGUGGGAAACACGAUAGGGUGAGAAGGUACUUAAUAUAU [Samwise Clockwise 19 - Jieux - Same State 2]”, in that order: 0.0845 µM and 0.0425 µM.
For “AGCAUGCGAUAUAAGGAUAUGUUGUUUGCAACAUGAGGAUCACCCAUGUUUGAGGCUGAAAAGCAGCAGAAGGUAUAUACAAGCA [SS2-1.0]”, in that order: 0.00945 µM and 0.013 µM.
For “UCAAAACAUGAGGAUCACCCAUGUAGCCUAAAGCGAGGAUAUGGGUUUCUUUAAAGAGUACCAGAAGGCGCCAAAA [Enenala]”, the “apparent KD of MS2 coat protein” value was determined as 0.0279 µM in the data set with MS2 coat protein [1] and 0.0911 µM in the data set on MS2 coat protein [2].
For “AGAAAACAUGAGGAUCACCCAUGUAGAAAUAUGGGAGGAUAUACGAAGACGAAAGUCAAAGUAGAAGGCCUAAAGA [Mat - Same State 1 - Eli mod - D101]”, in that order: 0.0236 µM and 0.0776 µM.
With “AAAAUACAUGAGGAUCACCCAUGUGAGAAAAACGCAGGAUAUGCCCGUUGAAAAAGGCGGGCAGAAGGGUGCCGAA [SameState1-III]”, the “apparent KD of MS2 coat protein” value with MS2 coat protein [1] was 0.0698 µM; with MS2 coat protein [2], 0.0506 µM.
The matching figures for “CGUGAACAUGAGGAUCACCCAUGUGAAAAACAUAGAGGAUAUGUCGCGUGAGUGCAAAAGACAGAAGGCUAUCGUG [Mod 4 of Round 1 starryjess' Mod pf Nando]”: 0.0199 µM and 0.0351 µM.
The matching figures for “AACAAUCUAUCUGAGGAUAUCAUGUCAAAGACAUGAGGAUCACCCAUGUAGCAGGAAACUGCUUAUGAGAAGGCAGAUAGAUUGA [SS2: 1114]”: 0.0694 µM and 0.45 µM.
For “CGUAAACAUGAGGAUCACCCAUGUCAAUAUGAUCAAGGAUAUGGGUUCCGAAGUGGAACACCAGAAGGUGAAUAGU [Inrea]”, in that order: 0.377 µM and 0.58 µM.
On to “GGGAGACAUGAGGAUCACCCAUGUGAGAAGAGGCGAGGAUAUCGAAAGAAAGAAGAGAAACGAGAAGGCGCGAGAU [salish99-SS1-053]”, for which the “apparent KD of MS2 coat protein” value was determined as 0.0303 µM in the data set on MS2 coat protein [1] and 0.067 µM in the data set on MS2 coat protein [2].
For “CAUCAUGCGCCUAAGGAUAUGUCUCACAAGACAUGAGGAUCACCCAUGUAGAACAAAUAAGUGAUGCAGAAGGUGGAGCGCAUGC [Edcequed]”, in that order: 0.0189 µM and 0.137 µM.
Consider “UGGAAGGAGAGAGAGGAUAUCCAAAGGAAAACAUGAGGAUCACCCAUGUAGAAGGUAGGAAAUUGGGAGAAGGCUCAAGAGAGAG [salish99-ss2-117]”, for which the figures for the “apparent KD of MS2 coat protein” value in the data set on MS2 coat protein [1] and with MS2 coat protein [2] were 0.017 µM and 0.0275 µM, respectively.
For “AAAAGACAUGAGGAUCACCCAUGUCAAAACGUAGGAGGAUAUGUAUGGAAAACAUGCUGUACAGAAGGCCUGUGUC [SS1 - 28]”, in that order: 0.0142 µM and 0.017 µM.

The values are drawn from the supplement of paper PMC9170038.
